In publication PMC12005789, “Geniposidic Acid Targeting FXR “S332 and H447” Mediated Conformational Change to Upregulate CYPs and miR‐19a‐3p to Ameliorate Drug‐Induced Liver Injury” (Advanced Science, 2025) one finds Kd data, which are given here for two molecules.

A word on the Kd: it is a measure of binding affinity in units of concentration.

Changes are numbered by the printed parent chain. Ends that are not written are not given here.

Experiment [1] has as its target T1, Farnesoid X receptor (FXR) (Homo sapiens, UniProt Q96RI1).
T1 construct: gene NR1H4; human FXR LBD (residues 248–486), N-terminal 8×His-Tag
T1 sequence (Q96RI1 248-486): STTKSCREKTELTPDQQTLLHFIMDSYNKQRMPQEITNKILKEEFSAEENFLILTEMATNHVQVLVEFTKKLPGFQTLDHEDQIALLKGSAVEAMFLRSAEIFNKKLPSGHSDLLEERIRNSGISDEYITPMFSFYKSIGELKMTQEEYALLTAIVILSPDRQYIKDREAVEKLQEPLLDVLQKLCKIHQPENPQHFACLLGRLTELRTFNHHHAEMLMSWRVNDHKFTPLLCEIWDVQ
The experiment in a line: SPR (Biacore T200, CM5 chip with FXR LBD WT); supported by DSF, CETSA and AlphaScreen. The experiment is classed as binding.

In experiment [2] the target is T2, human FXR LBD wild-type recombinant protein (human).
T2 chain: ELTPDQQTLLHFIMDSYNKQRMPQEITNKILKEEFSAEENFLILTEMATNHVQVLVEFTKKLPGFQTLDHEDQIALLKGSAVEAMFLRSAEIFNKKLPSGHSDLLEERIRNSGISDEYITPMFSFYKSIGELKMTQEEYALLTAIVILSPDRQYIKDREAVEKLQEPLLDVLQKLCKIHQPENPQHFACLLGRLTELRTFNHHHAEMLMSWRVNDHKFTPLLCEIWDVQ
The experiment in a line: SPR; with GW4064. On the technique in general: Surface plasmon resonance follows binding to a sensor surface in real time, without labels.

Experiment [3] deals with T3, human FXR LBD H447A recombinant protein (human).
T3 chain: T2 chain with H204A
Briefly: SPR; with GPA.

The target in experiment [4] is T2, human FXR LBD wild-type recombinant …. The experiment in a line: SPR; with GPA.

`O=C(O)C1=CO[C@@H](O[C@@H]2O[C@H](CO)[C@@H](O)[C@H](O)[C@H]2O)[C@@H]2C(CO)=CC[C@H]12` [GPA, Geniposidic acid] registered a Kd in experiment [1] of 390 nM.

On to QEPVSPKKKENALLRYLLDKDDTKD (also: biotinylated (position not given here)) [SRC2-3 biotinylated cofactor peptide], for which the Kd stood at 185 nM in experiment [2], 355000 nM in experiment [3] and 533 nM in experiment [4].
